B1: Speckle-type POZ protein (Homo sapiens), O43791 (parent)
chain: MSRVPSPPPPAEMSSGPVAESWCYTQIKVVKFSYMWTINNFSFCREEMGEVIKSSTFSSGANDKLKWCLRVNPKGLDEESKDYLSLYLLLVSCPKSEVRAKFKFSILNAKGEETKAMESQRAYRFVQGKDWGFKKFIRRDFLLDEANGLLPDDKLTLFCEVSVVQDSVNISGQNTMNMVKVPECRLADELGGLWENSRFTDCCLCVAGQEFQAHKAILAARSPVFSAMFEHEMEESKKNRVEINDVEPEVFKEMMCFIYTGKAPNLDKMADDLLAAADKYALERLKVMCEDALCSNLSVENAAEILILADLHSADQLKTQAVDFINYHASDVLETSGWKSMVVSHPHLVAEAYRSLASAQCPFLGPPRKRLKQS
partner: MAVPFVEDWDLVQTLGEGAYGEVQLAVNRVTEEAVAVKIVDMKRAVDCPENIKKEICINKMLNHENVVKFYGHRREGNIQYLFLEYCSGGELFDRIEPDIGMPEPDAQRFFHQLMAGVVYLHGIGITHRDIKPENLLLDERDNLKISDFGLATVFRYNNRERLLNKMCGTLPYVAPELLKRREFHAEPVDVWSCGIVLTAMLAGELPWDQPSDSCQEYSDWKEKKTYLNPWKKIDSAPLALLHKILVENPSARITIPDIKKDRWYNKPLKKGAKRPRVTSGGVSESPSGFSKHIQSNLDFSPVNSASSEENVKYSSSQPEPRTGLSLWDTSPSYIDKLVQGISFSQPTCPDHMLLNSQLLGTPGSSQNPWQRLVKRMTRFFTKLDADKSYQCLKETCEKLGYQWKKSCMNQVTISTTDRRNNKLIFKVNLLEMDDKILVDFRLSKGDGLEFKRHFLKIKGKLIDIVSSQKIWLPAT
B2: Speckle-type POZ protein (Homo sapiens), O43791 (parent)
chain: B1 chain
partner: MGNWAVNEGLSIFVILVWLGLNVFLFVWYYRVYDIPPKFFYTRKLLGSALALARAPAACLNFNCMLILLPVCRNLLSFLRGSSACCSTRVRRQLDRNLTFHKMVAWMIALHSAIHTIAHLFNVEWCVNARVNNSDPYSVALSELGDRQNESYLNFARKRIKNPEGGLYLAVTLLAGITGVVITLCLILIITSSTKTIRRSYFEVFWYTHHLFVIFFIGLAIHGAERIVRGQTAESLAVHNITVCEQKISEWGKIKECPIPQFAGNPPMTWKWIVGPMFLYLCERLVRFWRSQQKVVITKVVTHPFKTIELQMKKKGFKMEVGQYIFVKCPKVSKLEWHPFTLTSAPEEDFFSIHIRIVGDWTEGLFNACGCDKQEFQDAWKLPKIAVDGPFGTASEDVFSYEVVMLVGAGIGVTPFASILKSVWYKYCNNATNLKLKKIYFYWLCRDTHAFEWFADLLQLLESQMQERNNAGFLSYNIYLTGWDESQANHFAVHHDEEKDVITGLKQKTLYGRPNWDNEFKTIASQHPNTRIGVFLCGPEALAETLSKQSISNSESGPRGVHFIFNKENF

Variants of: B1
Conditions: with chk1_human CHEK1, O14757

| Variant | effect of a mutation on the interaction |
| --- | --- |
| MSRVPSPPPPAEMSSGPVAESWCYTQIKVVKFSYMWTINNFSFCREEMGEVIKSSTFSSGANDKLKWCLRVNPKGLDEESKDYLSLCLLLVSCPKSEVRAKFKFSILNAKGEETKAMESQRAYRFVQGKDWGFKKFIRRDFLLDEANGLLPDDKLTLFCEVSVVQDSVNISGQNTMNMVKVPECRLADELGGLWENSRFTDCCLCVAGQEFQAHKAILAARSPVFSAMFEHEMEESKKNRVEINDVEPEVFKEMMCFIYTGKAPNLDKMADDLLAAADKYALERLKVMCEDALCSNLSVENAAEILILADLHSADQLKTQAVDFINYHASDVLETSGWKSMVVSHPHLVAEAYRSLASAQCPFLGPPRKRLKQS [Y87C] | with no effect |

Variants of: B1
Conditions: with chk1_human CHEK1, O14757
Remark: another data set of the same source

| Variant | effect of a mutation on the interaction |
| --- | --- |
| MSRVPSPPPPAEMSSGPVAESWCYTQIKVVKFSYMWTINNFSFCREEMGEVIKSSTFSSGANDKLKWCLRVNPKGLDEESKDYLSLYLLLVSCPKSEVRAKCKFSILNAKGEETKAMESQRAYRFVQGKDWGFKKFIRRDFLLDEANGLLPDDKLTLFCEVSVVQDSVNISGQNTMNMVKVPECRLADELGGLWENSRFTDCCLCVAGQEFQAHKAILAARSPVFSAMFEHEMEESKKNRVEINDVEPEVFKEMMCFIYTGKAPNLDKMADDLLAAADKYALERLKVMCEDALCSNLSVENAAEILILADLHSADQLKTQAVDFINYHASDVLETSGWKSMVVSHPHLVAEAYRSLASAQCPFLGPPRKRLKQS [F102C] | with no effect |

Variants of: B1
Conditions: with chk1_human CHEK1, O14757
Remark: another data set of the same source

| Variant | effect of a mutation on the interaction |
| --- | --- |
| MSRVPSPPPPAEMSSGPVAESWCYTQIKVVKFSYMWTINNFSFCREEMGEVIKSSTFSSGANDKLKWCLRVNPKGLDEESKDYLSLYLLLVSCPKSEVRAKFKFSILNAKGEETKAMESQRAYRFVQGKDWGLKKFIRRDFLLDEANGLLPDDKLTLFCEVSVVQDSVNISGQNTMNMVKVPECRLADELGGLWENSRFTDCCLCVAGQEFQAHKAILAARSPVFSAMFEHEMEESKKNRVEINDVEPEVFKEMMCFIYTGKAPNLDKMADDLLAAADKYALERLKVMCEDALCSNLSVENAAEILILADLHSADQLKTQAVDFINYHASDVLETSGWKSMVVSHPHLVAEAYRSLASAQCPFLGPPRKRLKQS [F133L] | with no effect |

Variants of: B1
Conditions: with chk1_human CHEK1, O14757
Remark: another data set of the same source

| Variant | effect of a mutation on the interaction |
| --- | --- |
| MSRVPSPPPPAEMSSGPVAESWCYTQIKVVKFSYMWTINNFSFCREEMGEVIKSSTFSSGANDKLKWCLRVNPKGLDEESKDYLSLYLLLVSCPKSEVRAKFKFSILNAKGEETKAMESQRAYRFVQGKDWGVKKFIRRDFLLDEANGLLPDDKLTLFCEVSVVQDSVNISGQNTMNMVKVPECRLADELGGLWENSRFTDCCLCVAGQEFQAHKAILAARSPVFSAMFEHEMEESKKNRVEINDVEPEVFKEMMCFIYTGKAPNLDKMADDLLAAADKYALERLKVMCEDALCSNLSVENAAEILILADLHSADQLKTQAVDFINYHASDVLETSGWKSMVVSHPHLVAEAYRSLASAQCPFLGPPRKRLKQS [F133V] | with no effect |

Variants of: B2
Conditions: with cy24b_human CYBB

| Variant | effect of a mutation on the interaction |
| --- | --- |
| MSRVPSPPPPAEMSSGPVAESWCYTQIKVVKFSYMWTINNFSFCREEMGEVIKSSTFSSGANDKLKWCLRVNPKGLDEESKDYLSLYLLLVSCPKSEVRAKCKFSILNAKGEETKAMESQRAYRFVQGKDWGFKKFIRRDFLLDEANGLLPDDKLTLFCEVSVVQDSVNISGQNTMNMVKVPECRLADELGGLWENSRFTDCCLCVAGQEFQAHKAILAARSPVFSAMFEHEMEESKKNRVEINDVEPEVFKEMMCFIYTGKAPNLDKMADDLLAAADKYALERLKVMCEDALCSNLSVENAAEILILADLHSADQLKTQAVDFINYHASDVLETSGWKSMVVSHPHLVAEAYRSLASAQCPFLGPPRKRLKQS [F102C] | with no effect |

Variants of: B2
Conditions: with cy24b_human CYBB
Remark: another data set of the same source

| Variant | effect of a mutation on the interaction |
| --- | --- |
| MSRVPSPPPPAEMSSGPVAESWCYTQIKVVKFSYMWTINNFSFCREEMGEVIKSSTFSSGANDKLKWCLRVNPKGLDEESKDYLSLYLLLVSCPKSEVRAKFKFSILNAKGEETKAMESQRAYRFVQGKDWGVKKFIRRDFLLDEANGLLPDDKLTLFCEVSVVQDSVNISGQNTMNMVKVPECRLADELGGLWENSRFTDCCLCVAGQEFQAHKAILAARSPVFSAMFEHEMEESKKNRVEINDVEPEVFKEMMCFIYTGKAPNLDKMADDLLAAADKYALERLKVMCEDALCSNLSVENAAEILILADLHSADQLKTQAVDFINYHASDVLETSGWKSMVVSHPHLVAEAYRSLASAQCPFLGPPRKRLKQS [F133V] | with no effect |

Variants of: B2
Conditions: with cy24b_human CYBB
Remark: another data set of the same source

| Variant | effect of a mutation on the interaction |
| --- | --- |
| MSRVPSPPPPAEMSSGPVAESWCYTQIKVVKFSYMWTINNFSFCREEMGEVIKSSTFSSGANDKLKWCLRVNPKGLDEESKDYLSLYLLLVSCPKSEVRAKFKFSILNAKGEETKAMESQRAYRFVQGKDWGLKKFIRRDFLLDEANGLLPDDKLTLFCEVSVVQDSVNISGQNTMNMVKVPECRLADELGGLWENSRFTDCCLCVAGQEFQAHKAILAARSPVFSAMFEHEMEESKKNRVEINDVEPEVFKEMMCFIYTGKAPNLDKMADDLLAAADKYALERLKVMCEDALCSNLSVENAAEILILADLHSADQLKTQAVDFINYHASDVLETSGWKSMVVSHPHLVAEAYRSLASAQCPFLGPPRKRLKQS [F133L] | with no effect |

Variants of: B2
Conditions: with cy24b_human CYBB
Remark: another data set of the same source

| Variant | effect of a mutation on the interaction |
| --- | --- |
| MSRVPSPPPPAEMSSGPVAESWCYTQIKVVKFSYMWTINNFSFCREEMGEVIKSSTFSSGANDKLKWCLRVNPKGLDEESKDYLSLCLLLVSCPKSEVRAKFKFSILNAKGEETKAMESQRAYRFVQGKDWGFKKFIRRDFLLDEANGLLPDDKLTLFCEVSVVQDSVNISGQNTMNMVKVPECRLADELGGLWENSRFTDCCLCVAGQEFQAHKAILAARSPVFSAMFEHEMEESKKNRVEINDVEPEVFKEMMCFIYTGKAPNLDKMADDLLAAADKYALERLKVMCEDALCSNLSVENAAEILILADLHSADQLKTQAVDFINYHASDVLETSGWKSMVVSHPHLVAEAYRSLASAQCPFLGPPRKRLKQS [Y87C] | with no effect |
